Results on 84 variants are retold here after the RNAGym collection of RNA variant scans (doi:10.1073/pnas.2313332121).

Sequences and labels used below:
B1: TPR t1 (parent)
chain: GACCAAUCUGCCCUCAGAGCUCGAGAACAUCUUCGGAUGCAGAGGAGGCAGGCUUCGGUGGCGCGAUAGCGCCAACGUCCUCAACCUCCAAUGCAUCCCACCACAUGAUGAUGCCUGAAGAGCCUUGGUUUUUUG

The data set covers variants of B1. Briefly: polymerase ribozyme fitness, log enrichment relative to wild type (log ratio); higher = more active; in vitro selection for triplet polymerase activity. An outline of the steps:
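Both subunits of a heterodimeric triplet polymerase ribozyme were given their own mutant library, built by PCR and transcribed. Each library was annealed with a biotinylated primer, the partner subunit and triplets, incubated frozen at −7 °C, and its extended constructs gel-excised, captured on streptavidin beads and amplified by RT-PCR, all in one round done in triplicate. Fitness is the logarithm of genotype enrichment relative to wild-type enrichment, with replicates averaged by inverse-variance weighting. That logarithm is base 2, and Illumina-sequenced genotypes needed ≥10 input reads and ≥1 read per output.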
Take C4A G69U U106C C124U: the “polymerase ribozyme fitness (log ratio)” value is -1.05.

C4G G44U U78G U96G U106C: the “polymerase ribozyme fitness (log ratio)” value is -4.97. To C4U C20A belongs -2.6; to C4U U38G C49A C53U C73U, -2.53; to C4G C8G, -0.396. For the variant C4U A75G C76A G77U, the “polymerase ribozyme fitness (log ratio)” value is -2.12. On to C4G C13A G60A A66G C85A A121C, for which the “polymerase ribozyme fitness (log ratio)” value was -2.37. To C4G C8G G44A U131G belongs -3.14. To C4U C34G belongs -5.92; to C4G G47A C79A A90G G120A, -3.84; to C4U G17C G69U, -2.09. To C4A A46U C56U C72G C123G belongs -4.32; to C4G C123A, -0.461.

On to C4G A50U C72G, for which the “polymerase ribozyme fitness (log ratio)” value is -3.42. For C4G U9A C89A C115A G117C, the “polymerase ribozyme fitness (log ratio)” value is -4.91.

C4A G48A G57A C85U C101A: the “polymerase ribozyme fitness (log ratio)” value is -4.21. As to C4A U14G C49A C73G C86U, the “polymerase ribozyme fitness (log ratio)” value is -4.9. As for C4U C102U C124U, the “polymerase ribozyme fitness (log ratio)” value was -0.637.

With C4G G36U, the “polymerase ribozyme fitness (log ratio)” value was -2.8. In the case of C4U C62U A91U G120A, the “polymerase ribozyme fitness (log ratio)” value was -2.44.

As to C4U G48A G71U U106A, the “polymerase ribozyme fitness (log ratio)” value was -1.2.

C4A C64U: the “polymerase ribozyme fitness (log ratio)” value is -1.24. To C4A C40U C114U belongs -4.58. To C4G C8G U81A A111C belongs -2.27; to C4U A6C G48U G69U C86U C88A G113C, -3.07. To C4U C70U C85G C86U belongs -2.03; to C4G A6U A27U A111U, -4.8; to C4G A27U G36C C49G C79U C123G, -5.37. Take C4U G52U G128U: the “polymerase ribozyme fitness (log ratio)” value is -2.66. Consider C4U A74U, for which the “polymerase ribozyme fitness (log ratio)” value was -1.1. To C4A C12G G117A G128C belongs -1.61; to C4A G63U A119G, -0.807.

On to C4G A46U C53U C70A, for which the “polymerase ribozyme fitness (log ratio)” value was -2.97. On to C4A U9G G42C, for which the “polymerase ribozyme fitness (log ratio)” value was -3.15. To C4G G110C belongs -5.58; to C4A G63A A83U A118G, -3.12; to C4U U21A C115G, -4.19. As for C4G G61A U78A A83G C124U U125G, the “polymerase ribozyme fitness (log ratio)” value is -1.07. In the case of C4U G60A C86U G93A G117A U133A, the “polymerase ribozyme fitness (log ratio)” value is -3.03. To C4U G10U belongs -0.515; to C4U U32A C89A U106C G110A, -5.64; to C4U A41C A111U A119C, -6.22.

For the variant C4U C22G G48A C89A C124A, the “polymerase ribozyme fitness (log ratio)” value is -3.16. To C4U C49U A66G belongs -2.3. On to C4U A6U U78G C88U A91U A95U, for which the “polymerase ribozyme fitness (log ratio)” value was -3.57. As to C4A G71A A100U C123U, the “polymerase ribozyme fitness (log ratio)” value is -2.04. To C4A C72G belongs -1.81; to C4U G113U C124U, -4.72. To C4U C8G C13A U21G C70U G120C U132C belongs -0.598; to C4U A50G C62U G110A, -1.24.

On to C4U G60A, for which the “polymerase ribozyme fitness (log ratio)” value was -0.911. For the variant C4A G52C C114U, the “polymerase ribozyme fitness (log ratio)” value is -6.04. To C4G A5U C8U C101G C104U belongs -3.99; to C4G C73U U92C, -2.66. To C4U A6C C13U G48U C49G C53U G113C belongs -3.03; to C4A A119C G120A G127U, -0.47; to C4G A43U A46G C62U G63A U78C C114U G117U, -5.92. To C4A G60U G127A belongs -2.51.

Consider C4A G17A C53G C70G U106G G113A C115U U131A, for which the “polymerase ribozyme fitness (log ratio)” value was -6.14. As for C4A U87C G120A G127A, the “polymerase ribozyme fitness (log ratio)” value is -0.66. To C4G C13G C49A G60A C62U belongs -4.62; to C4G U9C A43G G47A C73A, -2.93. In the case of C4U A37G, the “polymerase ribozyme fitness (log ratio)” value is -0.871.

Consider C4U C53A C64U C88A C123U G127U U131G, for which the “polymerase ribozyme fitness (log ratio)” value was -1.35.

As for C4U A29C G48U C56G A119G, the “polymerase ribozyme fitness (log ratio)” value is -3.08. To C4G U112G belongs -0.359; to C4A U78A C124G, 1.08; to C4G C73A, -1.43. A5C A29G C49G C70A U92C G117U: the “polymerase ribozyme fitness (log ratio)” value is -7.38. As to C4G A29G U54C, the “polymerase ribozyme fitness (log ratio)” value was -2.97. To C4A C72A C114U C124A belongs -2.33; to C4A G135U, -2.46; to C4G U78C U112G, -1.83. To C4U C20A A111G belongs -4.75.

In the case of C4U C20A A111U, the “polymerase ribozyme fitness (log ratio)” value is -2.94.

In the case of C4G U55C C72U C94G, the “polymerase ribozyme fitness (log ratio)” value is -3.35. Regarding C4U U7G C22G U55G A91C C124A, the “polymerase ribozyme fitness (log ratio)” value was -3.16.

Consider C4G A5U C73G C89U C101G G120A G135A, for which the “polymerase ribozyme fitness (log ratio)” value was -3.57.

For the variant C4A A74U, the “polymerase ribozyme fitness (log ratio)” value was -1.77.

For C4A A74G, the “polymerase ribozyme fitness (log ratio)” value is -1.14. To C4A C56G belongs -1.83; to C4A C56U, -0.847; to C4A C56A, -2.53. To C4A U59C A90C belongs -3.84.
